Substrate: O=[N+]([O-])c1ccc(O[C@@H]2O[C@H](CO)[C@@H](O)[C@H](O)[C@H]2O)cc1
Assay: purified protein
Format: biochemical, Spodoptera frugiperda
Conditions: 100 mM sodium citrate-sodium phosphate pH 6.0, 30°C

B1: Sfβgly (Spodoptera frugiperda) (protein)
chain: QQRRFPDDFLFGTATASYQIEGAWDEDGKGENIWDYMVHNTPEVIRDLSNGDIAADSYHNYKRDVEMMRELGLDAYRFSLSWARILPTGMANEVNPAGIAFYNNYIDEMLKYNITPLITLYHWDLPQKLQELGGFANPLISDWFEDYARVVFENFGDRVKMFITFNEPREICFEGYGSATKAPILNATAMGAYLCAKNLVTAHAKAYYLYDREFRPVQGGQCGITISVNWFGPATPTPEDEMAAELRRQGEWGIYAHPIFSAEGGFPKELSDKIAEKSAQQGYPWSRLPEFTEEEKAFVRGTSDLIGVNHYTAFLVSATERKGPYPVPSLLDDVDTGSWADDSWLKSASAWLTLAPNSIHTALTHLNNLYNKPVFYITENGWSTDESRENSLIDDDRIQYYRASMESLLNCLDDGINLKGYMAWSLMDNFEWMEGYIERFGLYEVDFSDPARTRTPRKAAFVYKHIIKHRVVDYEYEPETMVMTIDEGH
notes: kinetics: gene in pAE plasmid, E. coli NovaBlue (DE3), Ni-NTA purified (His tag kept); mature protein 21-509 (borders printed for the P. pastoris pPIC9 crystal construct, 5CG0, glycosylated at N206); monomer-dimer equilibrium
Which Km does the source give for B1 here?
Its Km is 2300 µM.

And the kcat?
The kcat was 0.61 s⁻¹.

From publication PMC5148593, “Using the Amino Acid Network to Modulate the Hydrolytic Activity of β-Glycosidases” (PLoS ONE, 2016)
